US20220220200A1

Assays:
[1] = target: CD19 on the cell surface (native CD19 antigen) (human) (UniProt P15391); assay: flow cytometry, phage clone on JVM-2 cells (CD19-positive)
[2] = target: CD19 on the cell surface (native CD19 antigen) (human) (UniProt P15391); assay: flow cytometry, phage clone on K562-CD19 cells (CD19-positive)
[3] = target: CD19 on the cell surface (native CD19 antigen) (human) (UniProt P15391); assay: flow cytometry, phage clone on Raji cells (CD19-positive)

Sequence of CD19 on the cell surface (native CD19 antigen) (human) (P15391 20-556): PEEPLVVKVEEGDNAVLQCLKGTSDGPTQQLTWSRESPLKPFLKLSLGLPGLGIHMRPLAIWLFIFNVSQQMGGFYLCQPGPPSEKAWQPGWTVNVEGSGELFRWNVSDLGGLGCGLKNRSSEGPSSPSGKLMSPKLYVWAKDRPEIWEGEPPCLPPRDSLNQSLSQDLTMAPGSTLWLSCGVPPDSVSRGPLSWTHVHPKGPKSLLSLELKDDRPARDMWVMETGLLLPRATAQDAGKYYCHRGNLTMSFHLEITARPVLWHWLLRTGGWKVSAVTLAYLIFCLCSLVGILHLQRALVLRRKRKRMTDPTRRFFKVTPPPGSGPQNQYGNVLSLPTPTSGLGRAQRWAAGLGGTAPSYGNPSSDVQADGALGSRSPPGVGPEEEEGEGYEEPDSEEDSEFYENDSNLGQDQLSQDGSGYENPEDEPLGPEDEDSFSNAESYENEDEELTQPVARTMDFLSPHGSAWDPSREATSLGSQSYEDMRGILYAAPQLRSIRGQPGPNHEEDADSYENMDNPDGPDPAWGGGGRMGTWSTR

Q: For “FMC-63 (humanized mouse anti-human CD19 phage antibody clone) (scFv)”, which MFI [1] is on record?
A: The MFI was 22.4.

Q: And the MFI [2]?
A: The MFI was 38.1.

Q: What about the MFI [3] of the same substance?
A: The MFI was 55.8.
